This data set can be described thus: soluble on expression in E. coli; label from the status in PepcDB or PDB records.
For the sequence “TPYDPLTLWTTPDPPPNCSLIQELDAKLTLCLTKNGSIVNGIVSLVGVKGNLLNIQSTTTTVGVHLVFDEQGRLITSTPTALVPQASWGYRQGQSVSTNTVTNGLGFMPNVSAYPRPNASEAKSQMVSLTYLQGDTSKPITMKVAFNGITSLNGYSLTFMWSGLSNYINQPFSTPSCSFSYITQE”, the “soluble on expression in E. coli” value is recorded as “soluble”. With “TRELEDAQAMTEGERRKLASVIAYMTDGVIATNRNGAIILLNSPALELLNVSRETALEMPITSLLGLQENYTFEDLVEQQDSMLLEIERDDELTVLRVNFSVIQREHGKIDGLIAVIYDVT”, the “soluble on expression in E. coli” value was “not soluble”. For “TRIPGVRLMRAEQAYPRSPVFYEPRICILAQGQKIGFLGGETYRYDAERYLVMSVPLPFECETHASAAEPLLGVSVDVDIGTLKELLLQMEEAPGSDDDNELAPSAPMASVPLDAGMADAVMRLLGCLQSPLDSHILGPQLVREIIFRALRSEQGNAL”, the “soluble on expression in E. coli” value was “not soluble”. As to “TSQIRQNYSTEVEAAVNRLVNLHLRASYTYLSLGFFFDRDDVALEGVGHFFRELAEEKREGAERLLEFQNDRGGRALFQDVQKPSQDEWGKTQEAMEAALAMEKNLNQALLDLHALGSARADPHLCDFLESHYLDKEVKLIKKMGNHLTNLRRVAGPQPAQTGAPQGSLGEYLFERLTLKHD”, the “soluble on expression in E. coli” value was “soluble”. Under “TSRKLNDAANERLAAQQDLRNAATLIVRDARMAGGFGCFNMSEHPATDVIPDTTQQNSPFSLKRNGIDKLIPIAESSNINYQNFFQVGSALIFQYGIDD” stands “not soluble”; under “TSTDWKEAKSFLKGLSDKQREEHYFCKDFVRLKKIPTWKEMAKGVAVKVEEPRYKKDKQLNEKISLLRSDITKLEVDAIVNAANSSLLGGGGVDGCIHRAAGPLLTDECRTLQSCKTGKAKITGGYRLPAKYVIHTVGPIAYGEPSASQAAELRSCYLSSLDLLLEHRLRSVAFPCISTGVFGYPCEAAAEIVLATLREWLEQHKDKVDRLIICVFLEKDEDIYRSRLPHYFPVA”, “soluble”.

Take “TVKSGLILQSISNDVYHNLAVEDWIHDHMNLEGKPVLFLWRNSPTVVIGRHQNPWQECNLNLMREEGVKLARRRSGGGTVYHDMGNINLTFFTTKKKYDRMENLKLVVRALKAVHPHLDVQATKRFDLLLDGQFKISGTASKIGRNAAYHHCTLLCGTDGTFLSSLLKSPYQGIRSNATASTPALVKNLMEKDPTLTCEVVINAVATEYATSHQIDNHIHLINPTDETVFPGINSKAIELQTWEWIYGKTPKFSVDTSFTVLHEQSHVEIKVFIDVKNGRIEVCNIEAPDHWLPLEICDQLNSSLIGSKFSPIETTVLTSILHRTYPGDDELHSKWNILCEKIKGIM”: the “soluble on expression in E. coli” value is reported as “soluble”. For “TVRLMVDLRHHAAMLEEENDERTRAEQKLAETNVFLNSVVDGVAEPMVVVGLDRRVIMTNRAARDFFQISDVGSDEACHRLIHHRDTPCVREEGMQCPLLDVRTAKRPVIATQEHRDRSGDKRVVEVMTSPLLGSD” the value was “not soluble”; for “VAATKASTATDEPVKRTATKSPAASASGAKTGAKRTAAKSASGSPPAKRATKPAARSVKPASAPQDTTTSTIPKRKTRAAAKSAAAKAPSARGHATKPRAPKDAQHEAATDPEDALDSVEELDAEPDLDVEPGEDLDLDAADLNLDDLEDDVAPDADDDLDSGDDEDHEDLEAEAAVAPGQTADDDEEIAEPTEKDKASGDFVWDEDESEALRQARKDAELTASADSVRAYLKQIGKVALLNAEEEVELAKRIEAGLYATQLMTELSERGEKLPAAQRRDMMWICRDGDRAKNHLLEANLRLVVSLAKRYTGRGMAFLDLIQEGNLGLIRAVEKFDYTKGYKFSTYATWWIRQAITRAMADQARTIRIPVHMVEVINKLGRIQRELLQDLGREPTPEELAKEMDITPEKVLEIQQYAREPISLDQTIGDEGDSQLGDFIEDSEAVVAVDAVSFTLLQDQLQSVLDTLSEREAGVVRLRFGLTDGQPRTLDEIGQVYGVTRERIRQIESKTMSKLRHPSRSQVLRDYLD”, “soluble”. Take “VACMIPAPAYHPDPRFQALGGEFADPVEPADFPETVLRFRNDRAAATVGLETLDDRAWLRHFGRFEPLPDNQTRPLAMRYHGHQFRVYNPDLGDGRGFLFGQLREAGTGRLLDLATKGSGQTPWSRAGDGRLTLKGGVREILAASFLEALGVPTSRWCGL”: the “soluble on expression in E. coli” value was “soluble”. Regarding “VADFRYNVGLNLSAVKNKAVKFSGDGPIQTGGFNSDQIIRNEDGGLISRFYGYVADGIFQNWDEVYAHTNENGKLVQSNAQPGDIRFKDLNHDGVLDENDKTWIGNPYPDLMVGLNLGFSYKNIDFTANFYGTFGNDIFNKTKGLYSGVSGQNVWTGTLQKAWHGEGTSNDIPRLSYNDLNQNYTRVSSFFVEDGSYMRCKLLQVGYTLPKKWLNGTELRLSLSAQNPFTITSYSGMDPERPQIGKDGSVIETGIDGIAYPNPRTFLFGIDLKF”, the “soluble on expression in E. coli” value was “not soluble”. Regarding “VAFTEKQDALVSSSFEAFKANIPQYSVVFYTSILEKAPAAKDLFSFLANGVDPTNPKLTGHAEKLFALVRDSAGQLKASGTVVADAALGSVHAQKAVTDPQFVVVKEALLKTIKAAVGDKWSDELSRAWEVAYDELAAAIKKA”, the “soluble on expression in E. coli” value was “soluble”.

As for “VALAATRAFYWIEAQSPDAATAFAQRVFDLYFSDRLDTASPEAVSRLGPEVGLEPEALLAGIADPALKETVRKIGEDAVARGIFGSPFFLVDDEPFWGWDRMEMMAEWIRTGGW”, the “soluble on expression in E. coli” value is listed as “not soluble”. Take “VALESATVGSMHERTVRARTATGIVEGFTRDGVHRWRSIPYARAPVGSLRFRAPQPAQPWPGVRHCHTFANCAPQQRRYTVMGIGRYQTRSEDCLTLNVVTPEEPATQPLPVMVFIHGGGYILGSSATPIYDGAALARRGCVYVSVNYRLGALGCLDLSSLSTPQITLDSNVYLRDLVLALRWVHDNIAEFGGDPGNVTIFGESAGAHITATLLAVPAAKGLFARAISESPAAGMVRSREVAAEFAARFANLIGARTQDAANALMQASPAQLVEAQHHLIRQGMRKRLGAFPIGPVFGDDYLPMDPVEAMRSGRVHAVPLIVGTNAEEGRLFTRFLGMLPTNEPMVEELLSGMKPADRERITAAYPNYPAPSACIQLGGDFAFSSAAWQIAEAHGANAPTYLYRYDYAPRTLRWSGFGATHATELFAVFDIYRTRFGALLTAAADRRAALRVSNEVQRRWRCFSQIGVPGDDWPAYTQDDRAVLVFDRRCRIEFDPHQHRRIAWDGFSLAN”: the “soluble on expression in E. coli” value is recorded as “not soluble”. Under “VAVGARCVCGRPLAVVTRPLLPGGVPFPTTCYLTGPEAVKAISHIEAEGKMKEYNDMLAENEDLRAGYERAHELYLAFRHEIALALEDSEEHIEGTSAGGMPVRVKCLHALLAQTLVMGEGANPIGDMALSAIKHEFDPAVCRCAVENEE” stands “not soluble”; under VCSCRLVFCRRTELRVGNCLIGGVSFTYCCTRV, “soluble”; under “VDRYNDQASGRALIEIRLCNERATPMPIPIGLWMFQTKLHVNAGGADVFLPVCDVLEQDLAERDEEVRQLNLQYRNRLEYAIGRTCSAAWSVNGSRRPSAVWTTWLPVAETPHTRARSVENALLSMDSRGGVT”, “not soluble”.

Turning to “VDTHSEVLIFEVIPADDFLQQQLQITVQDRVWHVKRVRYRKQKPMALEETWMPLALFPDLTWQVMENSKYHFIEEVKKMVIDRSEQEIIPLMPTEEMSRLLNISQTKPILEKVSRGYLVDGRVFEYSRNAFNT”, the “soluble on expression in E. coli” value was “soluble”. With “VFIEERLEELSTFADSSDLTKIEYGNKKIGIITSGIAYNYAKEVIPDASFLKFGMSYPLPEEKIKEFVENCDKVYVFEELEPIFEQKIKSMGLNVIGKEIFPIIGELSSEIIRNALLNESKEVIDKFDELPQRPPVLCPGCHHRGPFYVLKKLKLHVAGDIGCYTLGGFGPLNAIDTTICMGASIGMAH”, the “soluble on expression in E. coli” value is “not soluble”.

Turning to “VGSIQPDFLGSVNSSLRYKNWTLRASMDMRFGGMVAIYGSHYGTAYGYLKSSMNGVDAENGGITYTSIWDGLTYDDGIIPEAIMPGGQTINTPSGTYTIAEGGELYADLVNRGIVDPQHASSWNYWNNSWGRAAVWKNNDWFHELNYIALREVSLSYRMPGKIADKIGASGINLTLTGRNLGYLLNSLPNNFNPESLRGTQAGQFMIRSVSPYTASYTFTINATF”, the “soluble on expression in E. coli” value is “not soluble”.

Consider “VIHVTKEVKEVATLSCGHNVSVEELAQTRIYWQKEKKMVLTMMSGDMNIWPEYKNRTIFDITNNLSIVILALRPSDEGTYECVVLKYEKDAFKREHLAEVTLSVKADFPTPSISDFEIPTSNIRRIICSTSGGFPEPHLSWLENGEELNAINTTVSQDPETELYAVSSKLDFNMTTNHSFMCLIKYGHLRVNQTFNWNTAK”, for which the “soluble on expression in E. coli” value was “soluble”. On to “VKDISMENLKKIFLGEVTNWKELGGKDQKIVILNRAAGSGTRATFEKWVLGDKTAIRAQEQDSSGMVRSIVSDTPGAISYTAFSYVTDEVATLSIDGVQPTDENVMNNKWIIWSYEHMYTRKNP”, for which the “soluble on expression in E. coli” value is on record as “not soluble”. As to “VKRFWENVGKPNDTTDGRGTTSLAMTPISQTPGLLAEAMVDLGAIEHNVRVLREHAGHAQLMAVVKADGYGHGATRVAQTALGAGAAELGVATVDEALALRADGITAPVLAWLHPPGIDFGPALLADVQVAVSSLRQLDELLHAVRRTGRTATVTVKVDTGLNRNGVGPAQFPAMLTALRQAMAEDAVRLRGLMSHMVYADKPDDSINDVQAQRFTAFLAQAREQGVRFEVAHLSNSSATMARPDLTFDLVRPGIAVYGLSPVPALGDMGLVPAMTVKCAVALVKSIRAGEGVSYGHTWIAPRDTNLALLPIGYADGVFRSLGGRLEVLINGRRCPGVGRICMDQFMVDLGPGPLDVAEGDEAILFGPGIRGEPTAQDWADLVGTIHYEVVTSPRGRITRTYREAENR”, the “soluble on expression in E. coli” value is reported as “soluble”. As for “VLDPLGPGAPVLVAGGRVTGQAVAAVLTRFGATPTVCDDDPVMLRPHAERGLPTVSSSDAVQQITGYALVVASPGFSPATPLLAAAAAAGVPIWGDVELAWRLDAAGCYGPPRSWLVVTGTNGKTTTTSMLHAMLIAGGRRAVLCGNIGSAVLDVLDEPAELLAVELSSFQLHWAPSLRPEAGAVLNIAEDHLDWHATMAEYTAAKARVLTGGVAVAGLDDSRAAALLDGSPAQVRVGFRLGEPAARELGVRDAHLVDRAFSDDLTLLPVASIPVPGPVGVLDALAAAALARSVGVPAGAIADAVTSFRVGRHRAEVVAVADGITYVDDSKATNPHAARASVLAYPRVVWIAGGLLKGASLHAEVAAMASRLVGAVLIGRDRAAVAEALSRHAPDVPVVQVVAGEDTGMPATVEVPVACVLDVAKDDKAGETVGAAVMTAAVAAARRMAQPGDTVLLAPAGASFDQFTGYADRGEAFATAVRAVIR”, the “soluble on expression in E. coli” value is listed as “not soluble”. In the case of “VLDVDTARRRIVDLTDAVRAFCTAHDDGLCNVFVPHATAGVAIIETGAGSDEDLVDTLVRLLPRDDRYRHAHGSYGHGADHLLPAFVAPSVTVPVSGGQPLLGTWQSIVLVDLNQDNPRRSVRLSFVEG”, the “soluble on expression in E. coli” value was “not soluble”. On to “VNIKTNPFKAVSFVESAIKKALDNAGYLIAEIKYDGVRGNICVDNTANSYWLSRVSKTIPALEHLNGFDVRWKRLLNDDRCFYKDGFMLDGELMVKGVDFNTGSGLLRTKWTDTKNQEFHEELFVEPIRKKDKVPFKLHTGHLHIKLYAILPLHIVESGEDCDVMTLLMQEHVKNMLPLLQEYFPEIEWQAAESYEVYDMVELQQLYEQKRAEGHEGLIVKDPMCIYKRGKKSGWWKMKPENEADGIIQGLVWGTKGLANEGKVIGFEVLLESGRLVNATNISRALMDEFTETVKEATLSQWGFFSPYGIGDNDACTINPYDGWACQISYMEETPDGSLRHPSFVMFR”, for which the “soluble on expression in E. coli” value is “soluble”.

As for “VPKVTFTVEKGSNEKHLAVLVKYEGDTMAEVELREHGSDEWVAMTKGEGGVWTFDSEEPLQGPFNFRFLTEKGMKNVFDDVVPEKYTIGATYAPEE”, the “soluble on expression in E. coli” value is recorded as “soluble”.

The record behind these values is the DeepSol protein solubility set.
